Data set [1] relates to TMA (truncated human thrombomodulin EGF-like domains 4-6, Met-388-Leu, C-terminal GlyGlyMet linker, expressed as an N-terminal Dsba enzyme fusion with leader sequence).
For data set [2], the system named is PEG-TMB (TMB conjugated at the C-terminal azido-methionine analog to methyl-PEG-triarylphosphine conjugate 2 by Staudinger ligation).
Data set [3] relates to TMB (truncated human thrombomodulin derivative, EGF-like domains 4-6, Met-388-Leu, C-terminal GlyGlyMet linker with azido-methionine analog).
Data set [4] has as its target recombinant human Thrombomodulin (soluble truncated form that lacks the putative transmembrane and the cytoplasmic domains, approximate weight 68 kD; American Diagnostica Inc.) (UniProt P07204).

recombinant human Thrombomodulin (soluble truncated form that lacks the putative transmembrane and the cytoplasmic domains, approximate weight 68 kD; American Diagnostica Inc.), sequence (P07204 whole entry, looked up, the tested form may be a part): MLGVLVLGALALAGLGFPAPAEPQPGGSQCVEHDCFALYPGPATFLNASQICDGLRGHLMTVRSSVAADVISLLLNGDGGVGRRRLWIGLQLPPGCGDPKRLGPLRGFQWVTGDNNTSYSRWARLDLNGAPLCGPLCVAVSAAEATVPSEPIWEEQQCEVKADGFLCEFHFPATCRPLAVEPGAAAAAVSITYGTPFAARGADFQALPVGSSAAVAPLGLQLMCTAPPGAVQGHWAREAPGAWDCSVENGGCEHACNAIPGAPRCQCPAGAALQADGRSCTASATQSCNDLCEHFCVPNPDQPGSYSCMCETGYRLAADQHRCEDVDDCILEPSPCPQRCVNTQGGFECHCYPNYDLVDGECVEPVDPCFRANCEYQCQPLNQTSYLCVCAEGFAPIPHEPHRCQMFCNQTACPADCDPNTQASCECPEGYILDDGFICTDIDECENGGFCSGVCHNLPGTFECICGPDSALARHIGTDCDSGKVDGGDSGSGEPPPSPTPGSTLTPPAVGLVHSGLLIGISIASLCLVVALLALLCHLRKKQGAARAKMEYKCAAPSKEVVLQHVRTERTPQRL

Consider “human alpha thrombin (Haematologic Technologies Inc.)”, for which the KM (µM) for protein C activation by the TM-thrombin complex in data set [1] was 0.9 µM; in data set [2], 1 µM; in data set [3], 1 µM; in data set [4], 0.7 µM. Besides, the kcat (min^-1) for protein C activation by the TM-thrombin complex in data set [1] was 0.22 min⁻¹; in data set [2], 0.2 min⁻¹; in data set [3] it was 0.16 min⁻¹; in data set [4], 0.14 min⁻¹. The kcat/KM (min^-1 · µM^-1) for protein C activation by the TM-thrombin complex (min^-1 · µM^-1) was 0.26 in data set [1], 0.2 in data set [2], 0.16 in data set [3] and 0.21 in data set [4].

The values above are taken from patent publication US20080051562.
